{
  "source": "patent US20140017168A1",
  "about": "(published 2014)",
  "key": {"[1]": {"target": "T1, gastrin-releasing peptide receptor on PC-3 cells (UniProt P30550 1-384, limits assumed)", "T1 construct": "whole, on cells", "T1 sequence (P30550 whole entry)": "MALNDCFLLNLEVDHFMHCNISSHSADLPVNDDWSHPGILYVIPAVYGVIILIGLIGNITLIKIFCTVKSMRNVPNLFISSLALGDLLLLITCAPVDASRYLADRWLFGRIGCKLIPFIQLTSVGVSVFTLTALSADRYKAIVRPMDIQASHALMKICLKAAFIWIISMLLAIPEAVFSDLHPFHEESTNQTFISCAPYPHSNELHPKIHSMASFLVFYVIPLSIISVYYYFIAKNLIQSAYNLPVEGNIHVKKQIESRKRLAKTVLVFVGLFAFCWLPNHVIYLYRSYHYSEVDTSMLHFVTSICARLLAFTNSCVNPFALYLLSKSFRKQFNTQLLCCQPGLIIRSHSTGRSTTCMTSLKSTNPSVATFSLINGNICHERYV", "experiment": "competition with 125I-BBN on PC-3 cells, inhibitor 250 to 2 nM", "experimental": "(§1) A NOTA-conjugated bombesin derivative (IMP468) was prepared as described above. […] Our initial experiment was to determine if IMP468 could specifically block bombesin from binding to PC-3 cells. We used IMP333 as a non-specific control. […] A range of 56 to 0.44 nM was used as our inhibitory concentrations.\nThis experiment was repeated using a commercially available BBN peptide. We increased the amount of inhibitory peptide from 250 to 2 nM to block the ¹²⁵I-BBN from binding to PC-3 cells."}, "[2]": {"target": "T1, gastrin-releasing peptide receptor on …", "experiment": "competition with 125I-bombesin on 3x10^6 PC-3 cells, inhibitor 56 to 0.44 nM", "experimental": "as §1"}},
  "note": "*: point of attachment. NOTA = O=C(O)CN1CCN(CC(=O)O)CCN(CC(=O)*)CC1; Aoc = NCCCCCCCC(=O)O",
  "data": [
    {"binder": "{NOTA-Aoc}-QWVWAVGHLM-NH2 (SMILES CSCC[C@H](NC(=O)[C@H](CC(C)C)NC(=O)[C@H](Cc1c[nH]cn1)NC(=O)CNC(=O)[C@@H](NC(=O)[C@H](C)NC(=O)[C@H](Cc1c[nH]c2ccccc12)NC(=O)[C@@H](NC(=O)[C@H](Cc1c[nH]c2ccccc12)NC(=O)[C@H](CCC(N)=O)NC(=O)CCCCCCCNC(=O)CN1CCN(CC(=O)O)CCN(CC(=O)O)CC1)C(C)C)C(C)C)C(N)=O, also called NOTA-conjugated bombesin derivative; bombesin analogue)", "note": "[IMP468 (NOTA-NH-(CH2)7CO-Gln-Trp-Val-Trp-Ala-Val-Gly-His-Leu-Met-NH2)]", "values": [
      {"measurement": "IC50", "setting": "[1]", "value": 35.9, "unit": "nM"},
      {"measurement": "IC50", "setting": "[2]", "value": 21.5, "unit": "nM"}
    ]}
  ]
}
